Results taken from patent US20150299298A1 (TRELLIS BIOSCIENCE, published 2015).
Like-named read-outs stand apart in the source and are kept apart here.

What was measured:
[1] = target: T1, IHF from Staphylococcus aureus (Staphylococcus aureus, UniProt Q5HFV0 1-90); assay: ELISA on IHF from S. aureus (IHF-Sa ELISA), OD 450 nm against [mAb] nM
T1 construct: mature; not shown: poly-histidine tag
T1 sequence: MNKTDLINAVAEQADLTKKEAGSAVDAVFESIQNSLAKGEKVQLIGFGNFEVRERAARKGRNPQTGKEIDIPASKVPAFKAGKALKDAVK

[2] = target: T1, IHF from Staphylococcus aureus; assay: as above; remark: listed apart in the source
[3] = target: IHF from Staphylococcus aureus (Staphylococcus aureus) (UniProt Q5HFV0); assay: ELISA
[4] = target: T2, IHF from Klebsiella pneumoniae (Klebsiella pneumoniae, UniProt A6TAI1 1-99); assay: ELISA at pH 2.5
T2 construct: also called IHF (Kp); K. pneumoniae
T2 sequence: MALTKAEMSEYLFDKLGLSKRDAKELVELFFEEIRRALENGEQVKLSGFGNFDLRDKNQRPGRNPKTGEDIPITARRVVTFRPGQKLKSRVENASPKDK

[5] = target: T1, IHF from Staphylococcus aureus; assay: ELISA at pH 2.5
[6] = target: T3, IHF from Pseudomonas aeruginosa (Pseudomonas aeruginosa, UniProt Q51472 2-100); assay: ELISA at pH 2.5
T3 construct: mature; also called IHF (Pa); P. aeruginosa; not shown: poly-histidine tag
T3 sequence: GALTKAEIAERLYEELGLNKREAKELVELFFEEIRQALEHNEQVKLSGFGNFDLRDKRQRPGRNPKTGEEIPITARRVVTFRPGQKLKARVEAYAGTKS

[7] = target: T2, IHF from Klebsiella pneumoniae; assay: ELISA at pH 4.5
[8] = target: T1, IHF from Staphylococcus aureus; assay: ELISA at pH 4.5
[9] = target: T3, IHF from Pseudomonas aeruginosa; assay: ELISA at pH 4.5
[10] = target: T2, IHF from Klebsiella pneumoniae; assay: ELISA at pH 5.5
[11] = target: T1, IHF from Staphylococcus aureus; assay: ELISA at pH 5.5
[12] = target: T3, IHF from Pseudomonas aeruginosa; assay: ELISA at pH 5.5
[13] = target: T2, IHF from Klebsiella pneumoniae; assay: ELISA at pH 3.5
[14] = target: T1, IHF from Staphylococcus aureus; assay: ELISA at pH 3.5
[15] = target: T3, IHF from Pseudomonas aeruginosa; assay: ELISA at pH 3.5
[16] = target: T2, IHF from Klebsiella pneumoniae; assay: ELISA at pH 7.5
[17] = target: T1, IHF from Staphylococcus aureus; assay: ELISA at pH 7.5
[18] = target: T3, IHF from Pseudomonas aeruginosa; assay: ELISA at pH 7.5
[19] = target: T2, IHF from Klebsiella pneumoniae; assay: ELISA at pH 6.5
[20] = target: T1, IHF from Staphylococcus aureus; assay: ELISA at pH 6.5
[21] = target: T3, IHF from Pseudomonas aeruginosa; assay: ELISA at pH 6.5

B1: TRL1338 (antibody, V domains shown)
VH: QLTLRESGPTLVKPTQTLTLTCTFSGFSLSTNGVGVGWIRQPPGKALEWLAIIYWDDDKRYSPSLKSRLTITKDTSKNQVVLTLTNMDPVDTGTYYCAHILGASNYWTGYLRYYFDYWGQGTLVTVST
VL: DIEMTQSPSVSVSPGQTARITCSGEPLAKQYAYWYQQKSGQAPVVVIYKDTERPSGIPERFSGSSSGTTVTLTISGVQAEDEADYHCESGDSSGTYPVFGGGTKLTVL
Binder B1 has a Kd [1] of 42 nM and a Kd [2] of 42 nM.

B2: TRL1230 (antibody, V domains shown)
VH: QVQLVQSGGGLVKPGGSLRLSCGASGFNLSSYSMNWVRQAPGKGLEWVSSISSRSSYIYYADSVQGRFTISRDNAKNSLYLQMNSLRAEDTAIYYCARVSPSTYYYYGMDVWGQGTTVTVSS
VL: DIVLTQPSSVSVSPGQTARITCSGDELPKQYAYWYQQKPGQAPVLVIYKDNERPSGIPERFSGSSSGTTVTLTISGVQAEDEADYYCQSADSSGTYVVFGGGTKLTVL
B2 was tested, and the OD [3] was 0.1 OD.

B3: TRL1068 (antibody, V domains shown)
VH: QVQLVESGPGLVKPSETLSLTCRVSGDSNRPSYWSWIRQAPGKAMEWIGYVYDSGVTIYNPSLKGRVTISLDTSKTRFSLKLTSVIAADTAVYYCARERFDRTSYKSWWGQGTQVTVSS
VL: DIVLTQAPGTLSLSPGDRATLSCRASQRLGGTSLAWYQHRSGQAPRLILYGTSNRATDTPDRFSGSGSGTDFVLTISSLEPEDFAVYYCQQYGSPPYTFGQGTTLDIK
In the case of B3, the Affinity [4] is reported as 2.6 nM, the Affinity [5] is reported as 3.5 nM and the Affinity [6] is reported as 2.1 nM. For the same binder, the Affinity [7] was 0.05 nM, the Affinity [8] was 0.012 nM and the Affinity [9] was 9 pM. For the same binder, the Affinity [10] was 9 pM, the Affinity [11] was 0.012 nM and the Affinity [12] was 6 pM. For the same binder, the Affinity [13] was 3 nM, the Affinity [14] was 0.36 nM and the Affinity [15] was 0.26 nM. It also gave an Affinity [16] of 6 pM, an Affinity [17] of 0.01 nM and an Affinity [18] of 5 pM. For the same binder, the Affinity [19] was 6 pM, the Affinity [20] was 0.012 nM and the Affinity [21] was 5 pM.

B4: TRL1337 (antibody, V domains shown)
VH: QVQLLESGPGLVKPSETPSLTCTVSGGSIRSYYWSWIRQPPGKGLEWIGYIYYSGSTNYNPSLKSRVTISVDMSKNQFSLKLSSVTAADTAMYYCARVYGGSGSYDFDYWGQGTLVTVSS
VL: DIVLTQSPSASGSPGQSVTISCTGTSSDVGGYNYVSWYQQLPGKAPKLMIYEVTKRPSGVPDRFSGSKSGNTASLTVSGLQAEDEADYYCSSFAGSNNHVVFGGGTKLTVL
Work on B4 yielded a Kd [1] of 6 nM and a Kd [2] of 6 nM.
